Test results: a protein production outcome set (Wang et al. 2014)

Experiment: label from the status in PepcDB records

Sequence | protein production
MRTAVIIPFYQREAGILSRALDSVDGQILPEGHSLTVFVIDDESPVSARSEVEGRQGKVPVRLIAQKNGGPGAARNAGLDAVAAEGFDHVAFLDSDDIWQPTHLADALDLLARGYDFHFCDHQRTDDDITYFERTPALRRMREERHAGVTVLDAEAPILAFDQPSIMAASVDTYLSQTSTVVVRQSFVETLRFDPRLRNAGEDQLFWLSLIAAGARTVVSWKMNVLCGRGVNVYFDAFDWKSTKVVDRTGYMLMFFHTVGRRLSLTASDRRTVADRIRRYRRAYSYLFLRALLQGRVPTLSLTWKLAALDPGLVPAMPLRFLAVLPNREAESLQWLEHHHHHH | failed
MRTDNINHWDVVAETYSEENNRGRNFHSQIYLAAVNELLGNVKGKCVLDAGCGDGFFSLELAQKGALVTAVDSSEAMLSIAKHKHVHDNLQYYNMDLTRELTFEDKFFDIVVANMLLMDIPEIELLIFEIARVLKKPGTFIFSITHPCFFLSDWEENENNIKTYKKIGNYLEERVEELNFWGKTLHYHRPLSRYMEAVEKAGMYVSSLREPVPPRELIELYPEQEYHCRIPSFVVIMAQMV | failed
MRTIIALETHDVRFPTSRELDGSDAMNPDPDYSAAYVVLRTDGAEDLAGYGLVFTIGRGNDVQTAAVAALAEHVVGLSVDKVIADLGAFARRLTNDSQLRWLGPEKGVMHMAIGAVINAAWDLAARAANKPLWRFIAELTPEQLVDTIDFRYLSDALTRDEALAILRDAQPQRAARTATLIEQGYPAYTTSPGWLGYSDEKLVRLAKEAVADGFRTIKLKVGANVQDDIRRCRLARAAIGPDIAMAVDANQRWDVGPAIDWMRQLAEFDIAWIEEPTSPDDVLGHAAIRQGITPVPVSTGEHTQNRVVFKQLLQAGAVDLIQIDAARVGGVNENLAILLLAAKFGVRVFPHAGGVGLCELVQHLAMADFVAITGKMEDRAIEFVDHLHQHFLDPVRIQHGRYLAPEVPGFSAEMHPASIAEFSYPDGRFWVEDLAA | not failed
MRTISFFNNKGGVGKTTLSTNVAHYFALQGKRVLYVDCDPQCNATQLMLTEEQTESIYLDGLNDEVAERNSLAKTVYAIFVPLREGESQIAAEITPMRSERFGVDVLPGHPALSQIEDLMSDSWQSALGRQTGPFRRIHWAGQLAHAMERDDRYDVIFFDVGPSLGPFNRTVLLGCDAFVTPTATDLFSFHAFGNLARWFDAWVTQ | failed
MRTIWLVFIANFKRAYSNKKKFFINLLVPVAAIILAIVVNYVSSPSLNIGVNEKIKSKGGDRIVKMLKHTRGINAKVCHGELMKTEVILGKYDAVVTIKRKLGKNSFNNMSKYFEFYNVRDKKTNEDMKKLIKAYLVQNKTLNMERIVKDEQIGGLSKSERIIAFLATVLLITSVVNGAVIIRDREENTYYRYMYSPNSKFEYIFGNVIYNYIFSYIQLFIANSLMAIFGIYIGISFLKMLSYGLILTLVMTTFGTFIVCIFNKELYANMFSAAISLILSLVGGTFINYKIMPEGLRRISDVTPNRWIIKSVQYMQNGRFGSINPMMVLIAFSIMFSLAAVLVSKFHKVQFK | failed
MRTLILAAALALAPLSAAAQDRAQTLADIKAEIAALQGQFNDLKRELVSTGAATSGAAGGSALQRMDAMEAAIAQVTAKAESLELKINRVVSDGSNRVGDLEFRVCELEEGCDIGAIGETKPLGGEASAAPAPTPAPAPAADPAGTFAVNEKADFDRAQEVLGQGDFRTAADLFKTFAETYTGGQLTYEAHYLRGEALSRLGETANAARAYLESFSGDPDGPRAPEALLKLGRALGDLRQTPEACVTLAEVGTRFPGSPSAAEAATTMQGLGCS | failed
MRTPCSQHRRDRPSAIGSQLPDADTLDTRQPPLQEIPISSFADKTFTAPAQIRNFCIIAHIDHGKSTLADRMLQLTGVVDERSMRAQYLDRMDIERERGITIKAQNVRLPWRVDKTDYVLHLIDTPGHVDFTYEVSRALEACEGAVLLVDAAQGIEAQTLANLYLALDRDLHIIPVLNKIDLPAADPDRYAAEMAHIIGCEPAEVLRVSGKTGEGVSDLLDEVVRQVPPPQGDAEAPTRAMIFDSVYDIYRGVVTYVRVVDGKISPRERIMMMSTGATHELLEVGIVSPEPKPCEGLGVGEVGYLITGVKDVRQSKVGDTVTSLSRARGAAAEALTGYREPKPMVYSGLYPVDGSDYPNLRDALDKLQLNDAALTYEPETSVALGFGFRCGFLGLLHMEITRERLEREFGLDLISTSPNVVYRVHKDDGTEIRVTNPSDWPEGKIRTVYEPVVKTTIIAPSEFIGTIMELCQSRRGELGGMDYLSPERVELRYTMPLGEIIFDFFDALKSRTRGYASLDYEEAGEQEAALVKVDILLQGEAVDAFSAIVHKDTAYAYGNKMTTKLKELIPRQQFEVPVQAAIGSKIIARENIRAIRKDVLSKCYGGDITRKRKLLEKQKEGKKRMKTIGRVEVPQEAFVAALSTDAAGDKGKK | failed
MRVDELRVDERIKSTLKERGIESFYPPQAEALKSGILEGKNALISIPTASGKTLIAEIAMVHRILTQGGKAVYIVPLKALAEEKFQEFQDWEKIGLRVAMATGDYDSKDEWLGKYDIIIATAEKFDSLLRHGSSWIKDVKILVADEIHLIGSRDRGATLEVILAHMLGKAQIIGLSATIGNPEELAEWLNAELIVSDWRPVKLRRGVFYQGFVTWEDGSIDRFSSWEELVYDAIRKKKGALIFVNMRRKAERVALELSKKVKSLLTKPEIRALNELADSLEENPTNEKLAKAIRGGVAFHHAGLGRDERVLVEENFRKGIIKAVVATPTLSAGINTPAFRVIIRDIWRYSDFGMERIPIIEVHQMLGRAGRPKYDEVGEGIIVSTSDDPREVMNHYIFGKPEKLFSQLSNESNLRSQVLALIATFGYSTVEEILKFISNTFYAYQRKDTYSLEEKIRNILYFLLENEFIEISLEDKIRPLSLGIRTAKLYIDPYTAKMFKDKMEEVVKDPNPIGIFHLISLTPDITPFNYSKREFERLEEEYYEFKDRLYFDDPYISGYDPYLERKFFRAFKTALVLLAWINEVPEGEIVEKYSVEPGDIYRIVETAEWLVYSLKEIAKVLGAYEIVDYLETLRVRVKYGIREELIPLMQLPLVGRRRARALYNSGFRSIEDISQARPEELLKIEGIGVKTVEAIFKFLGKNVKISEKPRKSTLDYFLKS | failed
MRVHPDRGRTNLPPFKLRSSRSTYKALKEKANGDALTNAGDRSIFVPDGICQGKAAERCQKTRQRGVRSVKNLIVKIAAAALLVLAPAIAQAAEGYSTANVNMRAGPSTRYPAVAVIPAGSSVEIRGCLSNVNWCDVEFYGGRGWVSGQYVQAVYEQRRVYVGPQYYRPLGIPMVTFSVGNYWDRYYRGRDFYRERDRWSRGPDYYYRDRDYRDRDYRREYRDRDYQVREYRDRDRDRRDDARREERRREVRRDDDNRSSDFRDLPQFRGGKADTYNHPDPRASPFVCRPGDPSCGD | failed
MRVKTIMTQNPVTITLPATRNYALELFKKYKVRSFPVVNKEGKLVGIISVKRILVNPDEEQLAMLVKRDVPVVKENDTLKKAAKLMLEYDYRRVVVVDSKGKPVGILTVGDIIRRYFAKSEKYKGVEIEPYYQRYVSIVWEGTPLKAALKALLLSNSMALPVVDSEGNLVGIVDETDLLRDSEIVRIMKSTELAASSEEEWILESHPTLLFEKFELQLPNKPVAEIMTRDVIVATPHMTVHEVALKMAKYSIEQLPVIRGEGDLIGLIRDFDLLKVLVKSKA | not failed
MRVLETIVALREYRKSLEESVGFVPTMGALHKGHQSLIERSLKENSHTIVSVFVNPTQFGANEDFNAYPRPLEKDLALCEKLGVNAVFVPKIGEMYPYEAEQRLKLYAPKFLSSSLEGAMRKGHFDGVVQIVLKMFHLVNPTRAYFGKKDAQQLLIIEHLVKDLLLDIEIAPCEIVRDDDNLALSSRNVYLNATQRKQALAIPKALEKIQQAIDKGEKACEKLKKLGLEILETLEVDYLECCNHKLEPLTIIEPTNTLILVAARVGKTRLLDNLWV | failed
MRVLPLLLLIYPFAEIAALVALADRIGGLAVFLLVLLSSMLGLWMLRNQKLGALLTLGSVMRQGDKVSLYSLLWPLRYALAGLLFLLPGLLSDVAAVLLLLPLKGPDISLRATGAGPAAGPAGGSDIIEGEFSRVDETTPPGRRIQ | failed
MRVNILMSTYNGEKFVADQIESIQKQTYTDWNLIIRDDGSSDRTCEIVDDFVSKDNRIKLIRAENVGVIKSFHELVTDSNNADFYFFADQDDYWLPEKLSVMLEETKKHDNSKPVMYYTDLKVTDRNLNVTSESMIRGQSDHANTKLVQELTENTVTGGASMINHELAQLWQSTNDIIMHDWYLAIVAAALGELVYIDQPTHLYRQHDSNVLGARTLSKRIKKWIHPNLWFEKYWWLITASQKQAQKLLTENLSLMSEDDKALVSDYVNILKQPKAERRQILDRYNLRKNKNYHTSIFRTLIITKFAYKGKKTNEFLQP | failed
MRVSCVYATASRWGGPPVASEVRGDAAISTTPDAAPGLAARRRRILFVAEAVTLAHVVRPFALAQSLDPSRYEVHFACDPRYNQLLGPLPFRHHAIHTIPSERFFGNLTQGRFYAMRTLRKYVEADLRVLDEIAPDLVVGDLRISLSVSARLAGIPYIAIANAYWSPYAQRRFPLPDVIWTRLFGVRLVKLLYRLERPLLFALQCMPLNWVRRRHGLSSLGWNLCRIFTDGDHTLYADVPELMPTYDLPANHEYLGPVLWSPAGKPPTWWDSLPTDRPIVYATLGTSGGRNLLQLVLNALAELPVTVIAATAGRSDLKTVPANAFVADYLPGEAAAARSAVVVCNGGSLTTQQALVAGVPVIGVAGNLDQHLNMEAVERAGAGVLLRTERLKSQRVAGAVMQVISRSEYRQAAARLADAFGRDRVGFPQHVENALRLMPENRPRTWLAS | failed
MRVSMTLFRSKENHRMLNNFAKLNGGDDVRMGADVPADALVDRLLVGFFYGPSDRLPEVLHVSNQLVRTKESYPFLPFCASQSHIWKPGDPLRHLEPFTLNPWCIIPYVNPRSQDFPFPELNEIKSQQLYFDHLLGIKKLPTMTLDVPKSHHFQPKLSRLKTHHNFPYLADFVIKVPTTIFSFIVAISLLL | failed
MRVVLQMAPPIASGRGGQGLITCPGHKERRVASLNRIAMARSSRRMIKDLGPEGLEVAEISGKWGQQFPFRSYRRFIYPEYDICAGPYCDAAGEIEQFDLILANQVWEHLDRPYEATLNVLEMLRTGGHFWLAVPFFVPFHAAPMDNSRWSARGLRNFLIECGFAEEEIRAEQWGNRHAALRNLERPWPPVYDPETDPLDNDPDFPICAWAIARKT | failed
MRWFILCLRKYVDFKGRARRKEFWLFTLFYLIALVIPPAVIIPIAVIYRHTIDIALCIRICVVVEILVIFSLLLPAYAVTVRRLHDTNRSGLWVIASIVPRVLAEGLGVIFGQKWLIQIAEGEFPTLLLINMFLLLIDLCVSILILVMMCERGTEGENRFGPDPLSDGREVLMEPEPGK | failed
MRWILFILFCLLGAPAHAVSIPGVTTTTTTDSTTEPAPEPDIEQKKAAYGALADVLDNDTSRKELIDQLRTVAATPPAEPVPKIVPPTLVEEQTVLQKVTEVSRHYGEALSARFGQLYRNITGSPHKPFNPQTFSNALTHFSMLAVLVFGFYWLIRLCALPLYRKMGQWARQKNRERSNWLQLPAMIIGAFIIDLLLLALTLFVGQVLSDNLNAGSRTIAFQQSLFLNAFALIEFFKAVLRLIFCPNVAELRPFTIQDESARYWSRRLSWLSSLIGYGLIVAVPIISNQVNVQIGALANVIIMLCMTVWALYLIFRNKKEITQHLLNFAEHSLAFFSLFIRAFALVWHWLASAYFIVLFFFSLFDPGNSLKFMMGATVRSLAIIGIAAFVSGMFSRWLAKTITLSPHTQRNYPELQKRLNGWLSAALKTARILTVCVAVMLLLSAWGLFDFWNWLQNGAGQKTVDILIRIALILFFSAVGWTVLASLIENRLASDIHGRPLPSARTRTLLTLFRNALAVIISTITIMIVLSEIGVNIAPLLAGAGALGLAISFGSQTLVKDIITGVFIQFENGMNTGDLVTIGPLTGTVERMSIRSVGVRQDTGAYHIIPWSSITTFANFVRGIGSVVANYDVDRHEDADKANQALKDAVAELMENEEIRGLIIGEPNFAGIVGLSNTAFTLRVSFTTLPLKQWTVRFALDSQVKKHFDLAGVRAPVQTYQVLPAPGATPAEPLPPGEPTL | failed
